The numbers were not newly measured in publication PMC4944212, which cites them from elsewhere.

Read-outs that look alike come from different tables or passages of the source.

As usually defined, the Kd is a measure of binding affinity in units of concentration.

Data set [1] has as its target SosCat SosCat (Homo sapiens) (UniProt Q07889).
Data set [2] concerns the target SosCat SosCat catalytic site (Homo sapiens) (UniProt Q07889).
Data set [3] concerns the target SosCat SosCat (Homo sapiens) (UniProt Q07889). In words: fluorescence titration.

Take H-Ras (from UniProt P01112): the figures for the Kd in data set [1], in data set [2] and in data set [3] were 54 µM, 21 µM and 5 µM, respectively.
